Measurements as given in the nanobody polyreactivity screen of Harvey et al. (2022).

experiment: yeast display, Sf9 membrane polyspecificity reagent, FACS + sequencing; frameworks hold sequencing errors
In short: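 Synthetic nanobody libraries on Saccharomyces cerevisiae BJ5465 were galactose-induced for 36–48 hours, stained 1 hour at 4 °C with 10% biotinylated, detergent-solubilized Sf9 membrane reagent and enriched on streptavidin microbeads. FACS then separated cells into low and high (top ~1%) gates by anti-HA (expression) and streptavidin (reagent binding) fluorescence. Genes were colony-PCR amplified, MiSeq 2 × 250 sequenced and CDR-length filtered. A clone's polyreactivity label is that of its gate of origin.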

| Sequence | polyreactivity (PSR sort gate) |
| --- | --- |
| QVQLVESGGGLVQAGGSLRLSCAPSGIIFYAYAMGWYRQAPGKEREFVAAINNSGGRTYYADSVKGRFTISRDNAKNTVYLQMNSLKPEDTAVYYCAVYSYYRRTYRREMDYWGQGTQVTVSS | high polyreactivity |
| QVQLVESGGGLVHEGGSLRLIFAASGRIFGPNHMGWYRQAPGKERELVAAITDSCDITYYADSVKGRFTISRDNAKNTVYLQMNSLKPQDTAVYYCAADHTYENEYWGQGTQVNVSS | low polyreactivity |
| QVQLVESGGGLVHAGGSLRLSCSASGSTFGPYAMGWYRQAPGKERELVAAISSRGARTYYADSVKGRFTISRDNAKNTVYLQMNSLKPEDTAVYYCANTYHGTAYDYWGQGTQVTVSS | high polyreactivity |
| QVQLVESGGGLVQAGGSLRLSCAASGRTFSYYAMGWYRQAPGKERELVAAISSGGSTNYADSVKGRFTISRDNAKNTVYLQMNSLKPEDTAVYYCATSSIWGSGRVRWVTYYYWGQGTQVTVSS | low polyreactivity |
| QVQLVESGGGLVQAGGSLRLSCAASGRIVGRYAMGWYRQAPGKERELVAAISWSGGSTYYADSVKGRFTISRDNAKNTVYLQKNSLKPEDTAGYYCAADYDSYFRLYNYWGQGTQVTVSS | high polyreactivity |
| QVQLVESGGGLVQAGGSLRLSCAASGSTFDDYAMGWYRQAPGKEREFVAAITYGGGNTYYADSVKGRFTISRDNAKNTVYLQMNSLKPEDTAVYYCNKLSRGFSPKYGYWGQGTQVTVSS | high polyreactivity |
| QVQLVESGGGLVQAGGSLRLSCAASGLTFYNNAMGWYRQAPGKERELVARISSGGSTYYADSVKGRFTISRDNAKNTVYLQMNSLKPEDTADYYCAAGRGYWWWYGYDYWGQGTQVTVSS | low polyreactivity |
| QVQLVESGGGLVQEGGSLRLSCAASGIIFQRNDMGWYRQAPGKERELVANIRDGGITYADSVKGRFTISRDNAKNTVYLQMNSLKPEDTAVYYCARDDTSPGYGDQSSNAAYYYWGQGTQVTVSS | low polyreactivity |
| QVQLVESGGGLVQAGGSLRLSCAASGLTFTGNAMGWYRQAPGKEREFVAAIRWSAGSTYYADSVKGRFTISRDNAKNTVYLQMNSLKPEDTAVYYCNAALNVSGHYPNDYWGQGTQVNVSS | low polyreactivity |
| QVQLVESGGGLVQAGGSLRLSCAASGLTFPSYAMGWYRQAPGKVSELVAAISARGGGTYYADSVKGRFTISRDNAKNTVYLQMNSLKPEDTAVYYCAADPVYAGPGYDYWGQGTQVTVSS | high polyreactivity |
| QVQLVESGGGLVQAGGSLRLSCAASGFTFERYTMGWYRQAPGKERELVATISRRSGRTSYADSVKGRFTISRDNAKNSVYLQMNSLKPEDTAVYYCAVDDAYPDRYDYWGQGTQVTVSS | high polyreactivity |
| QVQLVESGGGLVQAGGSLRLSCAASGIIFVYYAMGWYRQAPGKERELVAAISTGGTRTYYADSVKGRFTISRDNAKNTVYLQMNSLKPEDTAVYYCNARGRYRKSERRAFDYWGQGTQVTVSS | high polyreactivity |
| QVQLVESGGGLVQAGGSLRLSCAASGFTFDDNAMGWYRQAPGKERELVATISYSDGNTYYADSVKGRFTISRDNAKNTVYLQMNSLIPEDTAVYYCAADDWAVYYIGLDYDYWGQGTQVTVSS | low polyreactivity |
| QVQLVESGGGLVQAGGSLRLSCAASGSIFKWNAMGWYRQAPGKERELVASITRSGGSTYYADSVKGRFTISRDNAKNTVYLQMNSLKPEDTAVYYCARSYGWYRWAGYDYWGQGTQVTVSS | high polyreactivity |
| QVQLVESGGGLVQAGGSLRLSCAASGSIFASNAMGWYRQAPGKEREFVAAITWRTDRTHYADSVKGRFTISRDNAKNTVYLQMNSLKPEDTAVYYCAADTWFYRFYYWGQGTQVTVSS | high polyreactivity |
| QVQLVESGGGLVQAGGSLRLSCAASGFTFRVYVMGWYREAPGKERELVAGITRTGRTYYADSVKGRFTISRDNAKNTVYLQMNSLKPEDTAVYYCAATRPYSHRDYYYWGQGTQVTVSS | high polyreactivity |
| QVQFVESGGGLVQSGGSLRLSCAASGSIFRAYAMGWYRPAPGKEREFVAAISRRGGSTSYADSVKGRFTISRDYAKNTVYLQMNSLKPEDTAVYYCAATYQILTTSAHDSWGQGTQVTVSS | high polyreactivity |
| QVQLVESGGGLVQAGGSLRLSCAASGRTFNGYVMGWYSQAPGKEREFVAVINWSGGNTYYADSVKGRFTISRDNAKNTVYLQMNSLKPEDTAVYYCAARRVRSYAYDYWGQGTQVTVSS | high polyreactivity |
| QVQLVESGGGLVQAGGSLRLSCAASGFTFSYYAMGWYRQATGKERELVAAITSGGSTDYADSVKGRFTISRDNAKNTVYLQMNSLKPEDTAVYYCAVTARGGYQGKGTRRIYGYWGHGTQVTVSS | high polyreactivity |
| QVQLVESGGGLVQAGGSLRLSCAASGITFRGYAMGWYRKAPGKERELVASITNTDSTYYADSVKGRFTISRDNAKNTVYLQMNSLKPEDTAVYYCAARRGRKYGYWGQGTQVTVSS | high polyreactivity |
| QVQLVESGGGLVQAGGSLRLSCADSGRTFYGNARGWYRQAPGKERELVAAISISGGSTYYADSVKGRFTISRDNAKNTVYLQMNSLKPEDTAVYYCNAQEYYYYPYVYDSDYWGQGTQVTVSS | low polyreactivity |
| QVQLVESGVGLVQAGGSLRLSCAASGIIFVTYTMAWYRQAHGKEREFVAAITRRGSRTYYADSVKGRFTISRDNAKNTVYLQMNSPKPEDTAVYYCNAVPRWSYVDEDSWGQGTQVTVSS | high polyreactivity |

| Sequence | polyreactivity (PSR sort gate) |
| --- | --- |
| QVQLQESGGGLVQAGGSLSLSCAESGTISFTRDMVWYRQAPGKEREFVASIDRGASTYYADSVKGRFTISRDNAKNTVYLQMNSLKPEDSAVYYKAVIAPFYSSFAYWGQGTQVTVSS | high polyreactivity |
| QVQLVESGGGLVQAGGSLRLSCAASGFTSPIYAMGWYRQAPGKERELVAVIDWSSGITYYADSVKGRFTISRDNAKNTVYLQMNSLKPEDTAVYYCAAEYRGRGWRYGYDYWGQGTQVTVSS | high polyreactivity |
| QVQLVESGGGLVQAGGSLRLSCAASGFTFSRNAMGWYRQAPGKERELVAAIDSGGSTDYADSVKGRFTISRDNAKNTVYLQLNSLKPEDTAVYYCAKASSATRYVQLRQDYDYWGQGTQVTVSS | low polyreactivity |
| QVQLVESGGGLVQAGGSLRLSCAASGSTFQFYAMGWYRQAPGKERELVAAIRSSDDSTYYADSVKGRFTISRDNAKNTVYLQMNSLKPEDTAVYYCAAVQDYYGVWYDYWGQGTQVTVSS | high polyreactivity |
| QVQLVESGGGLVQAGGSLRLSCAASGRTLIYNVMGWYRQAPGKERELVAAITNGGSTYYADSVKGRFTISRDNAKNTVYLQMNSLKPEDTAVYYCATRYGKTYWGQGNQVTVSS | high polyreactivity |
| QVQLVESGGGLVQAGGSLRLSCAGSGRIFSENAMGWYRQAPGKERELVAAISVSGGSTYYADSVKGRFTISRDNAKNTVYLQMNSLKPEDTAVYYCAAEYLAYYSGYDYWGQGTQVTVSS | high polyreactivity |
| QVQLVDSGGGLVQAGGSLRLSCAASRNAMGWYRQAPGKERELVGAISFRGGSTYYADSVKGRFTISRDNAKNTVYLQMNSLKPEDTAVYYCAKVQHHDYEGRGFPDAADGYWGQGTQVTVSS | low polyreactivity |
| QVQLVESGGGLVQAGGSLRLSCAASGRIFVYYAMGWYRPAPGKERELVAAITSGGSTYYADSVKGRFTISRDNANNTVYLQMNSLKPEDTAVYYSAAYRYYYLVYQQHREYGYWGQGSQVTVSS | high polyreactivity |
| QVQLVESGGGLVQAGGSLRLSCAASGGIFLFNAMGWYRQAPGKERELVAAITDGGSTYYADSVKGRFTISRDNAKNTVYLQMNSLIPDDTAVYYCNKDSSFWGYYIAQVNERDYWGQGTQVTVSS | low polyreactivity |
| QVQLVESGGGLVQAGGSLRLSCAASGRTFAVYAMGWYRQAPGKERELVAAITFGGGRTYYADSVKGRFTISRDNAKITVYLQMNSLKPEDTAVYYCAADYYGTDYDYRGQGTQVTVSS | low polyreactivity |
| QVQLVESGGGLVQAGGSLRLSCAASGFTFGYNAMGWYRQAPGKEREMVAAINYGGSTDYADSVKGRFTISRDYAKNTVYLQMNSLKPEDTAVYYCNIADRYAYWVRGRHRYGYWGQGTQVTVSS | low polyreactivity |
| QVQLVESGGGLVQAGGSLRLSCAASGRTFPYNAMGWYRQAPGKERELVAAISWRGGSTYYADSVKGRFTISRDNAKNTVYLQMNSLKPEDTAVYYCNALYPVSYDHRGDYWGQGTQVTVSS | high polyreactivity |
| QVQLVESGGGLVQAGGSLRLSCAACGSIFNYYTMGWYRTAPGKERELVADISWSGGSTYYADSVKGRFTISRDNAKNTVYLQMNSLKPEETAVYYCAADFGLFPYVGTGYYYWGQGTQVTVSS | low polyreactivity |
| QVQLVESGGGLVQAGGSLRLRCAASGSTFEMYAMGWYRQEPGKERELVAAITWDTDSTYYADSVKGRFTISRDNAKNTVYLQMNSLKPEDTAVYYCNSQSGRASHYRGYGFDYWGQGTQVTVSS | high polyreactivity |
| QVQLVESGGGLVQAGGSLRVSCAASGRIFRYTSGWYRQAPAKERELVATINSCGRTYYADSVKGRFTISRDNAKNTVYLQRNCLKPEDTAVYFCAAPYQTKCNKYVHGSPIENDYWGQGTQVTVSS | low polyreactivity |
| QVQLVESGGVFVQAGGTLRLSCAASGITLNGYVMGWYRQAPGKEREFVAVITTRGGSTYYADSVKGRFTISRDNAKNTVYLQMNSLNPEDTAVYYCAARYVREYNYWGQGTQVTVSS | high polyreactivity |
| QVQLVESGGGLVQAGGSLRLTCAASGFIFRSYAMGWYRQAPGKERELVAVISRRGVNTHYADSVKGRFTISRDNAKNTVYLQMNSLKPEDTAVYYCAKGLTALGDYWGQGTQVTVSS | high polyreactivity |
| QVQLVESGGGLVQAGGSLRLSCAASGRTFAYYAMGWYRPAPGKERELVATITRSGGITSYADSVKGRFTISRDNAKNTVYLQMSSLKPADTAVYYCNTGYSNRLHDYWGQGTQVTVSS | high polyreactivity |
| QVQLVESGGGLVQAGGSLRLSCAASGRTFPYYAMGWSRQAPGKERQLVAAISSSGGLTYYADSVKGRFTISRDNAKNTVYLQMNSLKPEDTAVYYFNVDAWYPYQGFLVGYYYWGQGTQVTVSS | low polyreactivity |
| QVQLVESGGGLVQAGGSLRLSCAASGFTFRAYTMGWYRQAPGTERGLVAAITYSGGRTYYADSVKGRFTISRDNAKNTVYLQMNSLKPEDTAVYYCAAVRTKVWRGPEMDYWGQGTQVTVSS | high polyreactivity |
| QVQLVESGGGLVQAGGSLRLSCAASGRIFQDNAMGWYRQTPGKERELVAAISRRGGSTYYADSVKGRFTISRDNAKYTVYLQMNSMKPEDTAVYYCAAKWSVEEDYWGQGTQVTVSS | high polyreactivity |
